Laboratory results from patent US20060088522A1, “Humanized anti-5T4 antibodies and anti-5T4/calicheamicin conjugates” (Wyeth, priority 2004, published 2006).

Key:
human 5T4 antigen [1] = molecular target: T1, human 5T4 antigen (human, UniProt Q13641 32-355, limits assumed); assay: BIACORE, human 5T4 antigen immobilized on a CM5 chip, antibody 12.5 nM to 200 nM
T1 construct: Isolated antigen as used in BIACORE and ELISA; also called 5T4 oncofetal antigen
T1 sequence (looked up): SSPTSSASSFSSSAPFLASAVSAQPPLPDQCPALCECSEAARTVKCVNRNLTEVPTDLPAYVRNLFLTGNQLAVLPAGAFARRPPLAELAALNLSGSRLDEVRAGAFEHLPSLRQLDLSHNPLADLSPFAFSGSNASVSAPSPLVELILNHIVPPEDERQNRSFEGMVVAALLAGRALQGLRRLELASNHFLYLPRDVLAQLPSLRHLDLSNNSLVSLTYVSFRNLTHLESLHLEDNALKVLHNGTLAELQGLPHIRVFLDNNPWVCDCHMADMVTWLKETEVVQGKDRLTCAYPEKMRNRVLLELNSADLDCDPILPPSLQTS
Protocol: BIACORE® technology utilizes changes in the refractive index at the surface layer upon binding of the antibody to the 5T4 antigen immobilized on the layer. Binding is detected by surface plasmon resonance (SPR) of laser light refracting from the surface. Analysis of the signal kinetics on rate and off rate allows the discrimination between non-specific and specific interaction. The concentration of antibody used was in the range of 12.5 nM to 200 nM.

[2] = molecular target: T2, human 5T4 antigen on cells (human, UniProt Q13641 32-420); assay: flow cytometry on MDAMB435/5T4 cells
T2 construct: whole, on cells; also called 5T4 on MDAMB435/5T4 cells; 5T4 on CT26/5T4 cells
T2 sequence (looked up): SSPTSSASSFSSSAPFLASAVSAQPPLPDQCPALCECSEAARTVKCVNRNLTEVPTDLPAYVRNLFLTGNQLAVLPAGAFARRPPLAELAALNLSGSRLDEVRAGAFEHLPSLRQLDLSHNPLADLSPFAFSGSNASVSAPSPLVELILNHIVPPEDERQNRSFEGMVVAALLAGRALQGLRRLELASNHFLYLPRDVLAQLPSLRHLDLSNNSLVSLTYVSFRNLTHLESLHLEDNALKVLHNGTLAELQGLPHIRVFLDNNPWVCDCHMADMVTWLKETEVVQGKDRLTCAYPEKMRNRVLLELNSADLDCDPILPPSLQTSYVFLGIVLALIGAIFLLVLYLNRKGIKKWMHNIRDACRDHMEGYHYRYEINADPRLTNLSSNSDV

[3] = molecular target: T2, human 5T4 antigen on cells; assay: flow cytometry on N87, PC14PE6 and NCl-H157 cells (told of each)
human 5T4 antigen [4] = molecular target: T1, human 5T4 antigen; assay: competition ELISA on plate-coated human 5T4 antigen; competitor biotinylated chimeric H8 at its ED50
Protocol: ELISA plates were coated with human 5T4 antigen. To each well was added 100 μl of 1 μg/ml 5T4 antigen in PBS-CMF pH 7.2. The plates were incubated overnight at 4° C. After coating with antigen, plates were washed in a blocking solution of 0.02% casein in PBS-CMF, pH 7.2 for 2-4 hours at room temperature. […] Plates were washed 4 times with 200 μl of 0.03% TWEEN®-20 in PBS. The signal was developed for 10-15 minutes at room temperature following addition of 100 ∥l BIOFX® TMB (Biofx Laboratories, Inc. of Randallstown, Md.) per well. The reaction was stopped by addition of 100 μl per well of 0.18 N H₂SO₄. All incubation and wash steps were performed with gentle agitation. […] The ED50 of biotinylated antibody binding to antigen was determined by plotting OD₄₅₀ (duplicate data points averaged) as a function of biotinylated antibody concentration. […] The biotin label was amplified using streptavidin-HRP diluted 1:10,000 in assay buffer, followed by signal development and quantification as above.

Binder	Kd (human 5T4 antigen [1])	koff (human 5T4 antigen [1])	kon (human 5T4 antigen [1])	fold signal over control IgG [2]	fold signal over control IgG [3]	IC50 (human 5T4 antigen [4])
murine H8 anti-5T4 antibody (antibody, V domains shown, also called mAb5T4; H8 antibody) VH: EVQLQQSGPDLVKPGASVKISCKASGYSFTGYYMHWVKQSHGKSLEWIGRINPNNGVTLYNQKFKDKAILTVDKSSTTAYMELRSLTSEDSAVYYCARSTMITNYVMDYWGQVTSVTVSS VL: SIVMTQTPTFLLVSAGDRVTITCKASQSVSNDVAWYQQKPGQSPTLLISYTSSRYAGVPDRFIGSGYGTDFTFTISTLQAEDLAVYFCQQDYNSPPTFGGGTKLEIK	0.58 nM	5.9e-05 s⁻¹	100000 M⁻¹ s⁻¹	> 100 fold	~10 fold	–
Chimeric H8 (mVH/mVL) (antibody, V domains shown, also called chimeric H8 antibody; chimeric versions of H8) VH: EVQLQQSGPDLVKPGASVKISCKASGYSFTGYYMHWVKQSHGKSLEWIGRINPNNGVTLYNQKFKDKAILTVDKSSTTAYMELRSLTSEDSAVYYCARSTMITNYVMDYWGQVTSVTVSS VL: SIVMTQTPTFLLVSAGDRVTITCKASQSVSNDVAWYQQKPGQSPTLLISYTSSRYAGVPDRFIGSGYGTDFTFTISTLQAEDLAVYFCQQDYNSPPTFGGGTKLEIK	0.3 nM	4.2e-05 s⁻¹	140000 M⁻¹ s⁻¹	–	–	1 nM
